Measured values as given in patent US20220267427A1 (SYSMEX, published 2022).
One block for each binder: values may come before it. Where no end group is shown, it is not given here. The star is where a group is joined. Biotin = O=C1N[C@H]2[C@H](CS[C@H]2CCCCC(=O)*)N1

What was measured:
[1] = target: T1, fCK18 in apoptosis-induced HepG2 cell culture supernatant (human, UniProt P05783 239-397); assay: plate ELISA with K18-624 magnetic microbeads, K18-328Fab-ALP detector; fCK18 182.28 ng/mL
T1 construct: Natural CK18 fragment from the culture supernatant of apoptosis-induced HepG2 cells (band around 18 KDa); also called fCK18 in apoptosis-inducing cells
T1 sequence: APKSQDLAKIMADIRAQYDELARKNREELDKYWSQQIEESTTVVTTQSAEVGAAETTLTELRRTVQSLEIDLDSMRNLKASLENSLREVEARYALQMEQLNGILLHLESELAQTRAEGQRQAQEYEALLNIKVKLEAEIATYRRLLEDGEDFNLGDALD
Protocol: (§1) Measurement samples of 3-fold dilution series (3-fold to 6561-fold dilution) were prepared from the apoptosis-induced HepG2 cell culture supernatant with a diluent (TBS, pH 7.5, 2% BSA), and fCK18 was measured. […] Based on the prepared calibration curve, fCK18 in the measurement sample was measured.
(§2) This solution was added to an ELISA plate at 25 μL/well, then each measurement sample was added at 25 μL/well, and the plate was incubated (1500 rpm, RT, 20 min). […] (3) After washing the plate, the HISCL (registered trademark) R4 reagent was added thereto at 50 μL/well, and then the mixture was stirred (1500 rpm, RT, 1 min). Thereafter, the HISCL (registered trademark) R5 reagent was added at 100 μL/well, and then the mixture was stirred (1000 rpm, RT, 10 sec). (4) Luminescence intensity was measured with a plate reader.

[2] = target: T1, fCK18 in apoptosis-induced HepG2 cell …; assay: plate ELISA with K18-624 magnetic microbeads, K18-328Fab-ALP detector; fCK18 0.28 ng/mL
Protocol: as §1, §2

[3] = target: T1, fCK18 in apoptosis-induced HepG2 cell …; assay: plate ELISA with K18-624 magnetic microbeads, K18-328Fab-ALP detector; fCK18 0.09 ng/mL
Protocol: as §1, §2

[4] = target: T1, fCK18 in apoptosis-induced HepG2 cell …; assay: HISCL sandwich immunoassay; K18-624 magnetic microbeads capture, K18-328Fab-ALP detector; fCK18 0.09 ng/mL
Peptide 2 = target: T2, Peptide 2 (human); assay: solid phase ELISA, BSA-conjugated peptide on plate
T2 construct: Synthetic peptide; lacks the C-terminal aspartic acid of Peptide 1
T2 peptide: {BSA}-RRLLEDGEDFNLGDAL
Protocol: (1) BSA was added to the N-terminus of Peptide 1 and Peptide 2. (2) Each peptide was added to an ELISA plate at 5 μg/mL and 100 μL/well, and the plate was allowed to stand at 4° C. overnight to immobilize the peptide. Thereafter, the plate was washed three times with PBST, and Buffer I′ (10 mM NaH₂PO₄.2H₂O, 149.7 mM NaCl, 2.5 mM EDTA 2Na, 0.10% BSA, pH 7.0) was added thereto at 200 μL/well to prepare a plate stored at 4° C. overnight. […] (5) The plate was washed three times with PBST, and 15000-fold diluted Peroxidase-conjugated Affinipure F(ab)′2 Fragment Goat Anti-Mouse IgG (H+L) (Jackson) was added thereto at 100 μL/well, followed by shaking at room temperature for 1 hour. (6) The plate was washed three times with PBST, TMB Mix (1-step Ultra TMB-ELISA (Thermo Scientific):3% H₂O₂: Phosphate-Citrate buffer (Sigma)=15:0.15:14.85) was added thereto at 100 μL/well, and the mixture was reacted at room temperature for 10 minutes. Thereafter, 1 M H₂SO₄ was added thereto at 100 μL/well to stop the reaction. (7) Absorbance of the reaction solution at 450 nm was measured with a plate reader.

[5] = target: T1, fCK18 in apoptosis-induced HepG2 cell …; assay: HISCL sandwich immunoassay; K18-624 magnetic microbeads capture, K18-328Fab-ALP detector; fCK18 20.27 ng/mL
[6] = target: T1, fCK18 in apoptosis-induced HepG2 cell …; assay: plate ELISA with K18-624 magnetic microbeads, K18-328Fab-ALP detector; fCK18 6.79 ng/mL
Protocol: as §1, §2

[7] = target: T1, fCK18 in apoptosis-induced HepG2 cell …; assay: plate ELISA with K18-624 magnetic microbeads, K18-328Fab-ALP detector; fCK18 60.73 ng/mL
Protocol: as §1, §2

[8] = target: T1, fCK18 in apoptosis-induced HepG2 cell …; assay: HISCL sandwich immunoassay; K18-624 magnetic microbeads capture, K18-328Fab-ALP detector; fCK18 0.74 ng/mL
Peptide 23 = target: T3, Peptide 23 (human); assay: solid phase ELISA; biotinylated peptide on plate, antibody 2 ug/ml
T3 peptide: Biotin-QAQEYEALLNIKVKLEAE

Peptide 22 = target: T4, Peptide 22 (human); assay: as above
T4 peptide: Biotin-RAEGQRQAQEYEALLNIK

Peptide 20 = target: T5, Peptide 20 (human); assay: as above
T5 peptide: Biotin-ILLHLESELAQTRAEGQR

Peptide 27 = target: T6, Peptide 27 (human); assay: as above
T6 peptide: Biotin-LLEDGEDFNLGDALD

Peptide 19 = target: T7, Peptide 19 (human); assay: as above
T7 peptide: Biotin-MEQLNGILLHLESELAQT

Peptide 25 = target: T8, Peptide 25 (human); assay: as above
T8 peptide: Biotin-VKLEAEIATYRRLLEDGE

Peptide 24 = target: T9, Peptide 24 (human); assay: as above
T9 peptide: Biotin-ALLNIKVKLEAEIATYRR

Peptide 26 = target: T10, Peptide 26 (human); assay: as above
T10 peptide: Biotin-IATYRRLLEDGEDFNLGD

Peptide 21 = target: T11, Peptide 21 (human); assay: as above
T11 peptide: Biotin-SELAQTRAEGQRQAQEYE

S/N ratio [1]: 5560 | S/N ratio [2]: 5.9 | S/N ratio [3]: 2.7 | S/N ratio [4]: 1.9 | binding result (Peptide 2): no binding (tested: 5 to 10 ng/mL) | S/N ratio [5]: 226 | S/N ratio [6]: 158 | S/N ratio [7]: 1850 | S/N ratio [8]: 9.4
B1: K18-624 antibody (antibody, V domains shown)
VH: DVQLVESGGGLVQPGGSRKLSCAASGFTFSSFGMHWVRQAPEKGLEWVAYISSGSTTIYYADTVKGRFTISRDNPKNTLFLQMTSLRSEDTAMYYCARRGMITTGAWFAYWGQGTLVTVSA
VL: DILLTQSPAILSVSPGERVSFSCRASQRIGTSIHWYQQRTNGSPRLLIKYASESISGIPSRFSGSGSGTDFTLSINSVESEDIADYYCQQSYIWPFTFGSGTKLEIK
notes: Mouse monoclonal antibody from a hybridoma (Balb/C mouse immunised with Peptide 1-KLH)

Abs450 (Peptide 23): 0.02 | Abs450 (Peptide 22): 0 | Abs450 (Peptide 20): 0 | Abs450 (Peptide 27): 0 | Abs450 (Peptide 19): 0.01 | Abs450 (Peptide 25): 0.01 | Abs450 (Peptide 24): 0.01 | Abs450 (Peptide 26): 0.01 | Abs450 (Peptide 21): 0.01
B2: K18-328 antibody (antibody, V domains shown)
VH: QVHLQQSAAELARPGASVKMSCKASGYTFTNYTIHWIKQRPGQGLEWIGYINPSSGYTDYNQNFKDKTTLTADKSSTTVYMQLSSLTSEDSAVYYCARQIPFAYWGQGTLVTVSA
VL: not shown
notes: Mouse monoclonal antibody from a hybridoma (immunogen full length rCK18)
